Measurements as given in patent US20240025969A1, “NPC1 MONOBODIES AND MONOBODY CONJUGATES THEREOF” (NEW YORK UNIVERSITY, priority 2020, published 2024).
Entries after “also recorded” stand apart in the source; their conditions may differ.

B1: N23: NPC1-targeting monobody clone N23 (SEQ ID NO: 36) (protein)
chain: VSSVPTKLEVVAATPTSLLISWDASSSSVSYYRITYGETGGPFWHYQTFTVPGSKSTATISGLKPGVDYTITVYTYSSSMHFSSSPISINYRT
B2: N34: NPC1-targeting monobody clone N34 (SEQ ID NO: 40) (protein)
chain: VSSVPTKLEVVAATPTSLLISWDAPAVTVSYYVITYGETGGHYWHWQTFKVPGSKSTATISGLKPGVDYTITVYAYYGQMRYYSPISINYRT

What was measured:
ERK = ERK hyperactivation in NPC1 knockdown cells, EGFR inhibition; format: cell-based; conditions: short-term EGFR inhibition
HeLa cells = test: LC3B accumulation in macropinocytosis negative wild-type KRas HeLa cells; format: cell-based
Description: (§1) FIGS. 8A-8B show mutant KRas-dependent effects of NPC1-targeting monobodies. N23 and N34 clones were analyzed for effect on macropinocytosis negative wild-type KRas HeLa cells (FIG. 8A) versus macropinocytosis-positive mutant KRas […] cells (FIG. 8B). FN is a non-targeting monobody control. Arrows indicate LC3B accumulation.

HCT-116 cell = HCT-116 cell proliferation, Syto60 assay; format: cell-based; conditions: Syto60 assay after 3 days of treatment, n=3
Description: Proliferation was analyzed by Syto60 assay after 3 days of treatment. n=3

NPC1 = molecular target: T1, NPC1 (Homo sapiens, UniProt O15118); test: Screen for NPC1-inhibitory monobodies: intracellular cholesterol trafficking, filipin; format: cell-based; conditions: for inhibition of NPC1 by endosomal accumulation of cholesterol: DLD1 cells (Ras mutation, colon), cholesterol measured by filipin; for cholesterol entrapment / vesicle disruption: DLD1 cells, preliminary data; for cholesterol entrapment: filipin
T1 construct: endogenous in cells; host or cells: DLD-1 (mutant KRas colorectal cancer cells)
T1 sequence (O15118 23-1278): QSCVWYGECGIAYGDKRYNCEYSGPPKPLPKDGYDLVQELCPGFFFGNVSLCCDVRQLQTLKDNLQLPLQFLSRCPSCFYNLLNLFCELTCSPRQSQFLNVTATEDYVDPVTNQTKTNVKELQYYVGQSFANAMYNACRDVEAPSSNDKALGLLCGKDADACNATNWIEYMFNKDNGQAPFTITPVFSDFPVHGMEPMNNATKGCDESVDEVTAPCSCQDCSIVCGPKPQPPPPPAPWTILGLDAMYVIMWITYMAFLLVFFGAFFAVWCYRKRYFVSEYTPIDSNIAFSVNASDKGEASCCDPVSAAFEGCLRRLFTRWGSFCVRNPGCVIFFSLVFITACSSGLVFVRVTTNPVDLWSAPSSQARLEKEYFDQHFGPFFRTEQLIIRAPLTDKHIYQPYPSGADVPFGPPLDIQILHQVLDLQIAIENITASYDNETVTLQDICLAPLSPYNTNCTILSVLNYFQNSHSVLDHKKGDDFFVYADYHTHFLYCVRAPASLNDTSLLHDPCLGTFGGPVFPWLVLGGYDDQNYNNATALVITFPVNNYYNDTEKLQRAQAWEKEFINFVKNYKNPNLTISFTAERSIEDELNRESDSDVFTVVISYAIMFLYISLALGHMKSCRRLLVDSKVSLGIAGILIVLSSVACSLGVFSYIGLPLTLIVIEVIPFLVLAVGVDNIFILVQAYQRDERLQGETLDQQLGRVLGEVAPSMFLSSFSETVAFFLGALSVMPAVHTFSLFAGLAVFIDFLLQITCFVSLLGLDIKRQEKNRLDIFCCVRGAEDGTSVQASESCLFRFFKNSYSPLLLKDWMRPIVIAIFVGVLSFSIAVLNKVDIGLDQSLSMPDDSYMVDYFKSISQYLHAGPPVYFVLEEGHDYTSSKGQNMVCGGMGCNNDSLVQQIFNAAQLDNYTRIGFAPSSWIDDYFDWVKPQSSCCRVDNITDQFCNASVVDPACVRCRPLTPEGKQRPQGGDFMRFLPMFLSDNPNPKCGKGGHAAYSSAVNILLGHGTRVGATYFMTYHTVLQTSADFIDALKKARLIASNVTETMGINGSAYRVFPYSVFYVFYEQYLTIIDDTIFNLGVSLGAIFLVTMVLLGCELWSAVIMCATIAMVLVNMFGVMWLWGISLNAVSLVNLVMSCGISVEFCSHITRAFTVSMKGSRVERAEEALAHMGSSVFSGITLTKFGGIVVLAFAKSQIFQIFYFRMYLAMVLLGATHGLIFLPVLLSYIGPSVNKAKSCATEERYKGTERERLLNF
Description: FIG. 7A is a graph showing the effect of monobody clones on intracellular cholesterol trafficking. FIG. 7B are representative cell images from FIG. 7A. FIG. 7C is a heat map representation of cholesterol localization from FIG. 7B.
A major benefit of monobodies over antibodies is the lower cost in manufacturing. However, if monobodies need to be re-folded or aggregate during production, the cost of manufacturing can exceed that of antibodies. […] Utilizing both the imaging-based and biochemical approaches, it was confirmed that the monobodies described herein inhibit NPC1 in cell culture. […] FIG. 7B DLD1 cells (Ras mutation, colon) were treated with the top monobody hits and cholesterol was measured by filipin.

[1] = system: Mutant Ras PDAC MIA PaCa-2 cells; test: Split GFP assay for endosomal escape of GFP11; format: cell-based; conditions: MIA PaCa-2 cells expressing GFP1-10; 600 mM GFP11 with 1 mM monobody for 24 hrs
Description: Mutant Ras PDAC MIA PaCa-2 cells stably expressing cytoplasmic GFP1-10 were treated with 600 mM GFP11 with or without 1 mM of the N23 or N34 NCP1 monobody for 24 hrs.
A split GFP assay was developed to measure endosomal escape of proteins. Mutant Ras PDAC MIA PaCa-2 cells were stably expressed with GFP1-10, which is missing the 11β domain needed for fluorescence, making endosomal escape of GFP110 necessary for a positive signal. NPC1 targeting and control monobodies were co-delivered with the free GFP110 domain.

PDAC MIA PaCa3 cells = test: Calcein endosomal release assay, with or without nanoparticle delivery vehicle; format: cell-based; conditions: for endosomal release of calcein: calcein alone (PBS) or packaged in pegylated nanoparticle delivery vehicles (90 nm Nano), both conditions; for calcein fluorescence (endosomal release of calcein): co-delivery with calcein (FIG. 17)
Description: Calcein is a membrane impermeable, fluid phase uptake marker that is semi-quenched when in close proximity with other calcein molecules in vesicular compartments, but with intracellular release and molecule diffusion, dequenching causes an increase in cellular fluorescence.
FIGS. 18A-18B show an NCP1 monobody mediated increase in endosomal calcein release that was further improved in the presence of a nanoparticle delivery vehicle. FIG. 18A is a panel of immunocytochemical images of PDAC MIA PaCa3 cells treated with calcein alone (PBS) or packaged in a pegylated nanoparticle delivery vehicles (90 nm Nano) (images of top row). […] FIG. 18B is a graph quantifying calcein fluorescence in each of the tested conditions.
Endosome escape was again observed in a small molecule assay (FIG. 17). Calcein is a membrane impermeable, fluid phase uptake marker that is semi-quenched when in close proximity with other calcein molecules in vesicular compartments, but with intracellular release and molecule diffusion, dequenching causes an increase in cellular fluorescence. […] The NPC1 targeting monobodies have been established to induce small molecule, biologic, and nanoparticle escape.

HeLa KRasV12 cells = test: LC3B accumulation in macropinocytosis-positive mutant KRas HeLa cells; format: cell-based
Description: as §1

DLD-1 = test: Monobody uptake in mutant KRas CRC cells DLD-1; format: cell-based; conditions: mutant KRas CRC cells DLD-1, macropinocytosis positive
Description: (§2) FIGS. 10A-10B show monobody selectivity in colorectal DLD-1 and HCT-116 cancer cells (CRC).
(§3) Confirmation that uptake is dependent on macropinocytosis was confirmed in CRC cell lines. […] It was also observed that upon NPC1 knockdown in vitro, there is ERK hyperactivation (FIG. 13A). This observation was confirmed using the N34 monobody in vivo (FIG. 13B).

HCT-116 [2] = test: LC3B accumulation in HCT-116 cells; format: cell-based
Description: as §2, §3

HCA7 = test: Monobody uptake in wild-type KRas CRC cells; format: cell-based; conditions: macropinocytosis negative
Description: as §2, §3

HCT-116 [3] = test: Monobody uptake in mutant KRas CRC cells HCT-116; format: cell-based; conditions: mutant KRas CRC cells HCT-116, macropinocytosis positive
Description: as §2, §3

xenografts = test: Intratumor injection of monobody into xenografts; format: in vivo
Description: FIG. 11 show the in vivo cholesterol alterations with NPC1-targeting monobody (N34) versus non-targeting control (FN).
Monobody (1 uM; 50ul volume) was intratumorally injected two hours prior to tumor extraction.
Monobody (1 uM; 50ul volume) was intratumorally injected two hours prior to tumor extraction. Images were taken of serial sections from FIG. 13B.
as §3

[4] = N34-positive vs N34-negative areas, 1 uM, 50ul intratumorally, 2 hours post-injection
[5] = N34-positive vs N34-negative tumor, 1 uM, 50ul intratumorally two hours prior to tumor extraction

Molecule	ERK hyper-activation (ERK)	LC3B accumulation (HeLa cells)	CRC cell proliferation (HCT-116 cell)	inhibition of NPC1 by endosomal accumulation of cholesterol (NPC1)	cholesterol entrapment (NPC1)	vesicle disruption (NPC1)	fluorescence (endosomal escape of GFP11) [1]	endosomal release of calcein (PDAC MIA PaCa3 cells)	calcein fluorescence (endosomal release of calcein) (PDAC MIA PaCa3 cells)	LC3B accumulation (HeLa KRasV12 cells)	uptake of monobody (DLD-1)	accumulation of LC3B (HCT-116 [2])	uptake of monobody (HCA7)	uptake of monobody (HCT-116 [3])	LC3B accumulation in xenograft (xenografts; [4])	cholesterol accumulation in xenograft (xenografts; [4])	EGFR phosphorylation (activation) in tumor (xenografts; [5])	ERK phosphorylation (hyperactivation) in tumor (xenografts; [5])	cholesterol accumulation in tumor cells (xenografts; N34 positive tumor cells compared to non-targeting control monobody (FN))	uptake in CK8-positive tumor cells (xenografts; intratumor injection into xenografts)
COc1cc2ncnc(Nc3ccc(F)c(Cl)c3)c2cc1NC(=O)/C=C/CN1CCCCC1 [dacomitinib]	blocked ERK hyper-activation																			
B1		did not induce LC3B accumulation	no significant inhibition	greatest inhibition of NPC1	improved cholesterol entrapment	induce vesicle disruption	observed	enhanced endosomal release of calcein	increasing calcein fluorescence	did show an effect										
B2		did not induce LC3B accumulation	growth inhibitory effect	greatest inhibition of NPC1	improved cholesterol entrapment	induce vesicle disruption	observed	enhanced endosomal release of calcein	increasing calcein fluorescence	did show an effect	efficiently internalize	dose-dependent accumulation of LC3B	fail to uptake	efficiently internalize	robust cholesterol and LC3B accumulation; also recorded: induces cholesterol and LC3B accumulation	robust cholesterol and LC3B accumulation; also recorded: induces cholesterol and LC3B accumulation	EGFR activation was seen; also recorded: induces EGFR phosphorylation	confirmed; also recorded: induces ERK phosphorylation	displayed cholesterol accumulation	showed uptake
